Experimental data as given in US20220289857A1.

Molecular target: human Fn14 (full length) on cells (human) (UniProt Q9NP84)
Experiment: cell-based or functional assay

Sequence of human Fn14 (full length) on cells (human) (Q9NP84 28-129): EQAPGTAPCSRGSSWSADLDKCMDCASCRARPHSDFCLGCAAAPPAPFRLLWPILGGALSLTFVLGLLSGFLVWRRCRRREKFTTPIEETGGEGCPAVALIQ

B1: ITEM-4 commercial anti-Fn14 monoclonal antibody (antibody, from another filing, V domains shown)
VH: QVQLQQSGPELVKPGASVKMSCKASGYTFTDFIIAWVKQRTGQGLEWIGEIYPGTGRTYYSEKFRGKATLTADKSSNTAYMQLSSLTSVDSAVYFCARRTIYYDYDGDYWGQGTTLTVSS
VL: DIVMTQAAFSNPVTLGTSASISCRSSKSLLHSNGITYLYWYLQKPGQSPQLLIYQMSNLASGVPDRFSSSGSGTDFTLRISRVEAEDVGVYYCAHNLELPWTFGGGTKLELK
Q: How did the ICAM-1 MFI on HRMC, 250 ng/mL rhTWEAK, mAb 0.1 µg/mL turn out when B1 was run?
A: Its ICAM-1 MFI on HRMC, 250 ng/mL rhTWEAK, mAb 0.1 µg/mL is 9620 MFI.
